From patent publication US20030148445A1 (NATIONAL JEWISH MEDICAL AND RESEARCH CENTER, published 2003)

B1: C-terminal HA epitope-tagged BCMA (BCMA-HA) (receptor, not shown: small tags and cut ends)
chain: MLQMAGQCSQNEYFDSLLHACIPCQLRCSSNTPPLTCQRYCNASVTNSVKGTNAILWTCLGLSLIISLAVFVLMFLLRKISSEPLKDEFKNTGSGLLGMANIDLEKSRTGDEIILPRGLEYTVEECTCEDCIKSKPKVDSDHCFPLPAMEEGATILVTTKTNDYCKSLPAALSATEIEKSISAR
notes: also called HA-BCMA; B Cell Maturation Protein
B2: Flag-sBCMA-Fc secreted fusion protein (Fc fusion)
chain: MLQMAGQCSQNEYFDSLLHACIPCQLRCSSNTPPLTCQRYCNASVTNSVKGTNAILWTCLGL
notes: Used as 50-fold concentrated conditioned medium of transfected 293 cells; also called soluble BCMA; not shown: N-terminal Flag tag; Fc fragment of immunoglobulin G1 (IgG1), from the pCMV1-Flag-Fc plasmid

Legend:
[1] = molecular target: T1, Flag-tagged sTALL-1 (Flag-sTALL-1) (human, UniProt Q9Y275 134-285); assay: co-immunoprecipitation with anti-HA antibody, Western blot with anti-Flag antibody
T1 construct: Secreted from 293 cells transfected with pSec-Flag-sTALL-1; used as conditioned medium or purified on an anti-Flag column; also called soluble TALL-1
T1 sequence (Q9Y275 134-285): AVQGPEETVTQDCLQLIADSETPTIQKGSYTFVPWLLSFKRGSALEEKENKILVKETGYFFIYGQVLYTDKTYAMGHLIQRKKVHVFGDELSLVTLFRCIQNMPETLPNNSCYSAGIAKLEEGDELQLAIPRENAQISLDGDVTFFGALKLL
Protocol: (§1) 24 hours after transfection, cells were lysed in 1.0 ml lysis buffer (20 mM Tris [pH 7.5], 150 mM NaCl, 1% Triton, 1 mM EDTA, 10 μg/ml aprotinin, 10 μg/ml leupeptin, 1 mM PMSF). […] The mixtures were split into 2 aliquots and each aliquot was incubated with 0.5 μg anti-HA monoclonal antibody (BABCO, Berkeley, Calif.) (FIG. 6A; lanes 2,4,6,8) or control mouse IgG (FIG. 6A; lanes 1, 3, 5, 7), and 25 μl of a 1:1 slurry of GammaBind G Plus Sepharose at 4° C. for 3 hours. The sepharose beads were washed three times with 1 ml lysis buffer containing 500 mM NaCl. The precipitates were analyzed by Western blot with anti-Flag antibody (FIG. 6A; upper panel). […] All conditioned medium was supplemented with 10 mM Tris (pH 7.5), 100 mM NaCl, 1 mM EDTA, 10 μg/ml aprotinin, 10 μg/ml leupeptin, and 1 mM PMSF before TH immunoprecipitation experiments. Western blots were performed as described above.

[2] = molecular target: T2, Flag-tagged soluble TRAIL (Flag-sTRAIL) (UniProt P50591 95-281, limits assumed); assay: as above
T2 construct: not shown: Flag tag
T2 sequence (P50591 95-281 limits assumed): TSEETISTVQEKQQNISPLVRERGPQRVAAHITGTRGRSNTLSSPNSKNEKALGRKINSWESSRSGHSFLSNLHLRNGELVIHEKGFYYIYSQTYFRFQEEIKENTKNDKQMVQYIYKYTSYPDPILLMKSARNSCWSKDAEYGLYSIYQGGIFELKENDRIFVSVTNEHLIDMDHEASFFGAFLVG
Protocol: as §1

TRADD = molecular target: T3, TRADD (UniProt Q15628 1-312, limits assumed); assay: co-immunoprecipitation from transfected 293 cell lysates with anti-Flag antibody, Western blot with anti-HA antibody
T3 sequence (looked up): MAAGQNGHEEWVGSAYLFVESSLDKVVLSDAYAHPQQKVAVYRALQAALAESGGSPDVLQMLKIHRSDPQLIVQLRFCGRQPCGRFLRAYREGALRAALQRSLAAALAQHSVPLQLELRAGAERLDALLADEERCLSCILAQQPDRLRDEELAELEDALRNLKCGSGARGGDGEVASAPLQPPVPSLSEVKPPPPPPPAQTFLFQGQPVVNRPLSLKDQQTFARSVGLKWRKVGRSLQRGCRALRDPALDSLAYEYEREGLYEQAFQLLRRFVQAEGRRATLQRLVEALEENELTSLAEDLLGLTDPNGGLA
Protocol: (§2) In the second portion of the experiment (See FIG. 10B), 293 cells were transfected with expression plasmids for HA-BCMA and the plasmids indicated in FIG. 10B. Transfected cell lysates were immunoprecipitated with anti-Flag antibody or control IgG. The immunoprecipitates were analyzed by Western blot with anti-HA antibody (FIG. 10B; upper panel).

RIP = molecular target: T4, RIP (UniProt Q13546 1-671, limits assumed); assay: as above
T4 sequence (looked up): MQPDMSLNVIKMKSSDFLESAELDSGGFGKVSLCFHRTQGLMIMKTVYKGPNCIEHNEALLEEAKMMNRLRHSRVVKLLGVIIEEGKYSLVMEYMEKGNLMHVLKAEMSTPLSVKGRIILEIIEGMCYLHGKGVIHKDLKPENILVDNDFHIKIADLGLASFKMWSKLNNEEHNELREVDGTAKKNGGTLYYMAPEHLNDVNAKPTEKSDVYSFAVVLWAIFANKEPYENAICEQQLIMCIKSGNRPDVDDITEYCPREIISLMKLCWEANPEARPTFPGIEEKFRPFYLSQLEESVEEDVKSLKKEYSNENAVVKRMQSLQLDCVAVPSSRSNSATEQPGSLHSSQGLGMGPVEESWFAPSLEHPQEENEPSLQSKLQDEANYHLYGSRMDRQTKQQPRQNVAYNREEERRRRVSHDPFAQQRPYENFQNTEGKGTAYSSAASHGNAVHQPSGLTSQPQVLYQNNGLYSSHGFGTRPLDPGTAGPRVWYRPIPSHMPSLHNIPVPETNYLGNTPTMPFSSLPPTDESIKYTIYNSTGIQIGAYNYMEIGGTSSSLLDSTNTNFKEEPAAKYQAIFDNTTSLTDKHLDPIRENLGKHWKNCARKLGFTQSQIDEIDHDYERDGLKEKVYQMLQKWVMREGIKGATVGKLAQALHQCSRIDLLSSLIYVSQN
Protocol: as §2

TRAF2 = molecular target: T5, TRAF2 (UniProt Q12933 1-501, limits assumed); assay: as above
T5 sequence (looked up): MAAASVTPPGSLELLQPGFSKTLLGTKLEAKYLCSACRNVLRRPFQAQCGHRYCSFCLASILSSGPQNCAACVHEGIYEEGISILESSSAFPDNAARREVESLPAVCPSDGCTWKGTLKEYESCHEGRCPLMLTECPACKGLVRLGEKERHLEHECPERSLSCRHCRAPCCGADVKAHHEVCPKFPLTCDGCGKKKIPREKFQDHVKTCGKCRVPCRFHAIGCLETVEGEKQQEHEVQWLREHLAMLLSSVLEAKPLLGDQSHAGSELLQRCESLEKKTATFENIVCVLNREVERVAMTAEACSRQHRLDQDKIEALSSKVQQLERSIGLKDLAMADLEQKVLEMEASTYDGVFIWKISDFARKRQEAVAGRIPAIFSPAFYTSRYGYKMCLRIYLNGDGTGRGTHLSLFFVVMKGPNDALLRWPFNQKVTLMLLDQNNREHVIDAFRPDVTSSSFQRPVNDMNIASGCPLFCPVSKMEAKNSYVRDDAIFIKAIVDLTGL
Protocol: as §2

[3] = molecular target: T1, Flag-tagged sTALL-1 (Flag-sTALL-1); assay: competition in flow cytometry on Bjab cells
Protocol: As described in Examples 2 and 3, cell staining was performed by sequential incubation (each 40 minutes) with anti-Flag monoclonal antibody (1 μg/ml) and RPE-conjugated goat anti-mouse IgG (1:200 dilution) in staining buffer (D-PBS containing 2% fetal bovine serum). Cells were washed two times with staining buffer following each incubation.

Binder | binding result [1] | binding result [2] | binding result (TRADD) | binding result (RIP) | binding result (TRAF2) | binding result [3]
B1 | binds | no binding (tested: 0.1 µg recombinant Flag-sTRAIL) | no binding | no binding | no binding | 
B2 |  |  |  |  |  | binds
